# According to the supplement of paper PMC9112550, “Optimization of the antimicrobial peptide Bac7 by deep mutational scanning” (BMC Biology, 2022):
# Tested on: Escherichia coli TOP10
# Test: shrunken log2 fold change of peptide-encoding DNA abundance (4.5 h post-induction vs induction); higher = less antimicrobial activity (less host growth inhibition)
# Conditions: time post-induction: 4.5 h; library: site-saturation at positions 5, 18, 19, 20
# 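Further: peptides expressed intracellularly from a pBAD plasmid library in pooled LB shake-flask culture, induced with 0.3% L-arabinose, DNA abundance read by NGS, three biological replicates, DESeq2 with apeglm shrinkage.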
row,Sequence,shrunken log2 fold change
1,RRIRLRPPRLPRPRPRPPHGPRP,0.223
2,RRIRLRPPRLPRPRPRPPHSPRP,0.0872
3,RRIRLRPPRLPRPRPRPPIPPRP,0.316
4,RRIRLRPPRLPRPRPRPPKQPRP,0.0446
5,RRIRLRPPRLPRPRPRPPKSPRP,0.275
6,RRIRLRPPRLPRPRPRPPKTPRP,0.175
7,RRIRLRPPRLPRPRPRPPKYPRP,-0.154
8,RRIRLRPPRLPRPRPRPPLFPRP,0.412
9,RRIRLRPPRLPRPRPRPPLHPRP,0.456
10,RRIRLRPPRLPRPRPRPPLYPRP,1.61
11,RRIRLRPPRLPRPRPRPPMKPRP,-0.144
12,RRIRLRPPRLPRPRPRPPMQPRP,0.189
13,RRIRLRPPRLPRPRPRPPNTPRP,0.00316
14,RRIRLRPPRLPRPRPRPPPDPRP,1.19
15,RRIRLRPPRLPRPRPRPPPLPRP,1.12
16,RRIRLRPPRLPRPRPRPPQLPRP,0.206
17,RRIRLRPPRLPRPRPRPPTHPRP,0.147
18,RRIRLRPPRLPRPRPRPPVLPRP,0.0296
19,RRIRLRPPRLPRPRPRPPYDPRP,-0.188
20,RRIRLRPPRLPRPRPRPPYNPRP,-0.689
21,RRIRLRPPRLPRPRPRPQDKPRP,-0.431
22,RRIRLRPPRLPRPRPRPQDTPRP,-0.409
23,RRIRLRPPRLPRPRPRPQELPRP,-0.0432
24,RRIRLRPPRLPRPRPRPQEPPRP,-0.0198
25,RRIRLRPPRLPRPRPRPQEVPRP,0.0641

row,Sequence,shrunken log2 fold change
1,RRIRLRPPRLPRPRPRPQFCPRP,-0.137
2,RRIRLRPPRLPRPRPRPQHHPRP,-0.54
3,RRIRLRPPRLPRPRPRPQHYPRP,-0.761
4,RRIRLRPPRLPRPRPRPQIMPRP,-0.444
5,RRIRLRPPRLPRPRPRPQKMPRP,-0.0278
6,RRIRLRPPRLPRPRPRPQLQPRP,0.037
7,RRIRLRPPRLPRPRPRPQMIPRP,-0.173
8,RRIRLRPPRLPRPRPRPQMQPRP,0.017
9,RRIRLRPPRLPRPRPRPQNTPRP,-0.42
10,RRIRLRPPRLPRPRPRPQPKPRP,0.172
11,RRIRLRPPRLPRPRPRPQPTPRP,0.0811
12,RRIRLRPPRLPRPRPRPQQLPRP,-0.106
13,RRIRLRPPRLPRPRPRPQRMPRP,-0.124
14,RRIRLRPPRLPRPRPRPQSDPRP,-0.205
15,RRIRLRPPRLPRPRPRPQSQPRP,-0.179
16,RRIRLRPPRLPRPRPRPQTCPRP,-0.28
17,RRIRLRPPRLPRPRPRPQTIPRP,-0.234
18,RRIRLRPPRLPRPRPRPQTYPRP,-0.371
19,RRIRLRPPRLPRPRPRPQVHPRP,-0.184
20,RRIRLRPPRLPRPRPRPQYQPRP,-0.801
21,RRIRLRPPRLPRPRPRPRACPRP,0.223
22,RRIRLRPPRLPRPRPRPRAPPRP,0.71
23,RRIRLRPPRLPRPRPRPRCPPRP,0.188
24,RRIRLRPPRLPRPRPRPRCQPRP,0.72
25,RRIRLRPPRLPRPRPRPREDPRP,0.327

row,Sequence,shrunken log2 fold change
1,RRIRLRPPRLPRPRPRPREFPRP,0.463
2,RRIRLRPPRLPRPRPRPREPPRP,0.139
3,RRIRLRPPRLPRPRPRPRFAPRP,0.374
4,RRIRLRPPRLPRPRPRPRFDPRP,-0.053
5,RRIRLRPPRLPRPRPRPRFQPRP,0.0867
6,RRIRLRPPRLPRPRPRPRGRPRP,0.149
7,RRIRLRPPRLPRPRPRPRIRPRP,0.103
8,RRIRLRPPRLPRPRPRPRIYPRP,-0.636
9,RRIRLRPPRLPRPRPRPRKFPRP,-0.0381
10,RRIRLRPPRLPRPRPRPRLLPRP,0.167
11,RRIRLRPPRLPRPRPRPRLVPRP,0.0317
12,RRIRLRPPRLPRPRPRPRNGPRP,-0.0949
13,RRIRLRPPRLPRPRPRPRNVPRP,-0.116
14,RRIRLRPPRLPRPRPRPRPYPRP,-0.0267
15,RRIRLRPPRLPRPRPRPRQRPRP,0.892
16,RRIRLRPPRLPRPRPRPRQWPRP,0.223
17,RRIRLRPPRLPRPRPRPRRGPRP,0.543
18,RRIRLRPPRLPRPRPRPRSNPRP,1.62
19,RRIRLRPPRLPRPRPRPRTIPRP,0.0584
20,RRIRLRPPRLPRPRPRPRVEPRP,0.174
21,RRIRLRPPRLPRPRPRPRWFPRP,0.602
22,RRIRLRPPRLPRPRPRPRWLPRP,0.398
23,RRIRLRPPRLPRPRPRPRYDPRP,0.0436
24,RRIRLRPPRLPRPRPRPRYKPRP,-0.225
25,RRIRLRPPRLPRPRPRPRYVPRP,-0.265

row,Sequence,shrunken log2 fold change
1,RRIRLRPPRLPRPRPRPSAWPRP,-0.0766
2,RRIRLRPPRLPRPRPRPSCMPRP,-0.362
3,RRIRLRPPRLPRPRPRPSECPRP,0.215
4,RRIRLRPPRLPRPRPRPSEHPRP,-0.453
5,RRIRLRPPRLPRPRPRPSELPRP,-0.195
6,RRIRLRPPRLPRPRPRPSFTPRP,-0.672
7,RRIRLRPPRLPRPRPRPSHIPRP,-0.877
8,RRIRLRPPRLPRPRPRPSHMPRP,-0.228
9,RRIRLRPPRLPRPRPRPSHWPRP,-0.0446
10,RRIRLRPPRLPRPRPRPSIDPRP,-0.191
11,RRIRLRPPRLPRPRPRPSKRPRP,-0.646
12,RRIRLRPPRLPRPRPRPSLEPRP,-0.209
13,RRIRLRPPRLPRPRPRPSMGPRP,0.0483
14,RRIRLRPPRLPRPRPRPSMMPRP,-0.358
15,RRIRLRPPRLPRPRPRPSPTPRP,1.06
16,RRIRLRPPRLPRPRPRPSQMPRP,-0.261
17,RRIRLRPPRLPRPRPRPSRLPRP,-0.0544
18,RRIRLRPPRLPRPRPRPSSIPRP,-0.245
19,RRIRLRPPRLPRPRPRPSSPPRP,-0.115
20,RRIRLRPPRLPRPRPRPSTPPRP,-0.207
21,RRIRLRPPRLPRPRPRPSTVPRP,-0.938
22,RRIRLRPPRLPRPRPRPSWGPRP,0.00407
23,RRIRLRPPRLPRPRPRPSWVPRP,-0.141
24,RRIRLRPPRLPRPRPRPSYGPRP,-0.585
25,RRIRLRPPRLPRPRPRPTALPRP,-0.134

row,Sequence,shrunken log2 fold change
1,RRIRLRPPRLPRPRPRPTATPRP,0.817
2,RRIRLRPPRLPRPRPRPTCAPRP,0.314
3,RRIRLRPPRLPRPRPRPTCDPRP,-0.202
4,RRIRLRPPRLPRPRPRPTDMPRP,-0.633
5,RRIRLRPPRLPRPRPRPTDWPRP,0.947
6,RRIRLRPPRLPRPRPRPTEHPRP,0.121
7,RRIRLRPPRLPRPRPRPTFWPRP,0.303
8,RRIRLRPPRLPRPRPRPTGSPRP,-0.0138
9,RRIRLRPPRLPRPRPRPTHDPRP,0.324
10,RRIRLRPPRLPRPRPRPTKQPRP,0.103
11,RRIRLRPPRLPRPRPRPTLLPRP,0.0589
12,RRIRLRPPRLPRPRPRPTMCPRP,-0.0109
13,RRIRLRPPRLPRPRPRPTNFPRP,-0.0757
14,RRIRLRPPRLPRPRPRPTPDPRP,0.626
15,RRIRLRPPRLPRPRPRPTQRPRP,0.248
16,RRIRLRPPRLPRPRPRPTRCPRP,-0.119
17,RRIRLRPPRLPRPRPRPTTMPRP,-0.439
18,RRIRLRPPRLPRPRPRPTVIPRP,-0.059
19,RRIRLRPPRLPRPRPRPTVKPRP,-0.0583
20,RRIRLRPPRLPRPRPRPTWPPRP,0.705
21,RRIRLRPPRLPRPRPRPTWTPRP,-0.0607
22,RRIRLRPPRLPRPRPRPTYDPRP,0.0466
23,RRIRLRPPRLPRPRPRPVADPRP,0.0131
24,RRIRLRPPRLPRPRPRPVAEPRP,0.396
25,RRIRLRPPRLPRPRPRPVCAPRP,0.174

row,Sequence,shrunken log2 fold change
1,RRIRLRPPRLPRPRPRPVCFPRP,-0.059
2,RRIRLRPPRLPRPRPRPVCLPRP,-0.0821
3,RRIRLRPPRLPRPRPRPVCMPRP,-0.246
4,RRIRLRPPRLPRPRPRPVEDPRP,0.0985
5,RRIRLRPPRLPRPRPRPVFAPRP,0.223
6,RRIRLRPPRLPRPRPRPVFGPRP,0.0724
7,RRIRLRPPRLPRPRPRPVFHPRP,-0.143
8,RRIRLRPPRLPRPRPRPVFLPRP,-0.207
9,RRIRLRPPRLPRPRPRPVHGPRP,0.0748
10,RRIRLRPPRLPRPRPRPVKMPRP,-0.327
11,RRIRLRPPRLPRPRPRPVKQPRP,-0.0196
12,RRIRLRPPRLPRPRPRPVKRPRP,0.0647
13,RRIRLRPPRLPRPRPRPVLAPRP,0.104
14,RRIRLRPPRLPRPRPRPVMHPRP,-0.16
15,RRIRLRPPRLPRPRPRPVPRPRP,0.352
16,RRIRLRPPRLPRPRPRPVQVPRP,-0.113
17,RRIRLRPPRLPRPRPRPVRSPRP,0.53
18,RRIRLRPPRLPRPRPRPVSGPRP,0.525
19,RRIRLRPPRLPRPRPRPVSSPRP,0.242
20,RRIRLRPPRLPRPRPRPVTPPRP,-0.0834
21,RRIRLRPPRLPRPRPRPVTSPRP,-0.0743
22,RRIRLRPPRLPRPRPRPVVCPRP,-0.0501
23,RRIRLRPPRLPRPRPRPVVYPRP,-0.058
24,RRIRLRPPRLPRPRPRPVWYPRP,-0.277
25,RRIRLRPPRLPRPRPRPVYDPRP,-0.0147
